8 substances from the supplement of paper PMC11246515 can be followed below.

This data set in a line: total protein half-life in vivo (active degradation + dilution); higher = more stable protein.
Where [1] appears, read: E. coli NCM3722 delta-clpP delta-lon delta-hslV, growth: N-lim chemostat, doubling time 6 h.
The mark [2] stands for this setting: E. coli NCM3722 delta-clpP, growth: N-lim chemostat, doubling time 6 h.
[3] abbreviates: E. coli NCM3722 delta-hslV, growth: N-lim chemostat, doubling time 6 h.
Where [4] appears, read: E. coli NCM3722 delta-lon, growth: N-lim chemostat, doubling time 6 h.
[5] abbreviates: E. coli NCM3722 delta-smpB, growth: N-lim chemostat, doubling time 6 h.
[6] abbreviates: wild type E. coli NCM3722, growth: C-lim chemostat, doubling time 3 h.
[7] abbreviates: wild type E. coli NCM3722, growth: C-lim chemostat, doubling time 6 h.
[8] abbreviates: wild type E. coli NCM3722, growth: C-lim chemostat, doubling time 12 h.
Setting [9] is: wild type E. coli NCM3722, growth: N-lim chemostat, doubling time 6 h.
Where [10] appears, read: wild type E. coli NCM3722, growth: N-lim chemostat, doubling time 12 h.
[11] abbreviates: wild type E. coli NCM3722, growth: P-lim chemostat, doubling time 6 h.
Setting [12] is: wild type E. coli NCM3722, growth: P-lim chemostat, doubling time 12 h.

± gives the standard deviation of the averaged measurements.

Consider “MRYPVDVYTGKIQAYPEGKPSAIAKIQVDGELMLTELGLEGDEQAEKKVHGGPDRALCHYPREHYLYWAREFPEQAELFVAPAFGENLSTDGLTESNVYMGDIFRWGEALIQVSQPRSPCYKLNYHFDISDIAQLMQNTGKVGWLYSVIAPGKVSADAPLELVSRVSDVTVQEAAAIAWHMPFDDDQYHRLLSAAGLSKSWTRTMQKRRLSGKIEDFSRRLWGK”, for which the “total protein half-life in vivo” value under setting [1] was determined as 4.688 ± 0.014 h; the “total protein half-life in vivo” value under setting [2] is 4.89 ± 0.61 h; the “total protein half-life in vivo” value under setting [3] was 4.614 ± 0.023 h; the “total protein half-life in vivo” value under setting [4] is 5.77 ± 0.072 h; the “total protein half-life in vivo” value under setting [5] came out at 4.46 ± 0.23 h; the “total protein half-life in vivo” value under setting [6] was 3.04 ± 0.29 h. Besides, the “total protein half-life in vivo” value is, setting by setting: under setting [7], 6.38 ± 1.3 h; under setting [8], 9.06 ± 0.23 h; under setting [9], 4.7 ± 0.19 h; under setting [10], 7.96 ± 1.1 h; under setting [11], 5.64 ± 0.12 h; under setting [12], 12 ± 0.28 h.

Turning to “MQASQFSAQVLDWYDKYGRKTLPWQIDKTPYKVWLSEVMLQQTQVATVIPYFERFMARFPTVTDLANAPLDEVLHLWTGLGYYARARNLHKAAQQVATLHGGKFPETFEEVAALPGVGRSTAGAILSLSLGKHFPILDGNVKRVLARCYAVSGWPGKKEVENKLWSLSEQVTPAVGVERFNQAMMDLGAMICTRSKPKCSLCPLQNGCIAAANNSWALYPGKKPKQTLPERTGYFLLLQHEDEVLLAQRPPSGLWGGLYCFPQFADEESLRQWLAQRQIAADNLTQLTAFRHTFSHFHLDIVPMWLPVSSFTGCMDEGNALWYNLAQPPSVGLAAPVERLLQQLRTGAPV”, the “total protein half-life in vivo” value was found to be 5.73 ± 0.018 h under setting [2]; 4.02 ± 0.7 h under setting [3]; 3.65 ± 0.12 h under setting [4]; 3.52 ± 0.35 h under setting [5]; 3.86 h under setting [6]; 4.84 ± 0.14 h under setting [7]. Moreover, the “total protein half-life in vivo” value under setting [8] came to 7.51 ± 0.26 h; the “total protein half-life in vivo” value under setting [9] turned out to be 4.8 ± 1.8 h; the “total protein half-life in vivo” value under setting [10] is 6.05 h; the “total protein half-life in vivo” value under setting [11] stood at 4.89 ± 0.49 h; the “total protein half-life in vivo” value under setting [12] amounted to 8.5 ± 0.85 h.

As for “MLTSFKLHSLKPYTLKSSMILEIITYILCFFSMIIAFVDNTFSIKIYNITAIVCLLSLILRGRQENYNIKNLILPLSIFLIGLLDLIWYSAFKVDNSPFRATYHSYLNTAKIFIFGSFIVFLTLTSQLKSKKESVLYTLYSLSFLIAGYAMYINSIHENDRISFGVGTATGAAYSTMLIGIVSGVAILYTKKNHPFLFLLNSCAVLYVLALTQTRATLLLFPIICVAALIAYYNKSPKKFTSSIVLLIAILASIVIIFNKPIQNRYNEALNDLNSYTNANSVTSLGARLAMYEIGLNIFIKSPFSFRSAESRAESMNLLVAEHNRLRGALEFSNVHLHNEIIEAGSLKGLMGIFSTLFLYFSLFYIAYKKRALGLLILTLGIVGIGLSDVIIWARSIPIIIISAIVLLLVINNRNNTIN”, the “total protein half-life in vivo” value was 5.65 ± 0.45 h under setting [5] and 3.42 h under setting [6].

As for “MNGKLQSSDVKNETPYNIPLLINENVISSGISLISLWHTYADEHYRVIWPRDKKKPLIANSWVAVYTVQGCGKILLKNGEQITLHGNCIIFLKPMDIHSYHCEGLVWEQYWMEFTPTSMMDIPVGQQSVIYNGEIYNQELTEVAELITSPEAIKNNLAVAFLTKIIYQWICLMYADGKKDPQRRQIEKLIATLHASLQQRWSVADMAATIPCSEAWLRRLFLRYTGKTPKEYYLDARLDLALSLLKQQGNSVGEVADTLNFFDSFHFSKAFKHKFGYAPSAVLKNTDQHPTDASPHN”, the “total protein half-life in vivo” value under setting [1] is 5.49 ± 0.17 h and the “total protein half-life in vivo” value under setting [5] came to 1.33 ± 0.21 h.

For “MQYKDENGVNEPSRRRLLKVIGALALAGSCPVAHAQKTQSAPGTLSPDARNEKQPFYGEHQAGILTPQQAAMMLVAFDVLASDKADLERLFRLLTQRFAFLTQGGAAPETPNPRLPPLDSGILGGYIAPDNLTITLSVGHSLFDERFGLAPQMPKKLQKMTRFPNDSLDAALCHGDVLLQICANTQDTVIHALRDIIKHTPDLLSVRWKREGFISDHAARSKGKETPINLLGFKDGTANPDSQNDKLMQKVVWVTADQQEPAWTIGGSYQAVRLIQFRVEFWDRTPLKEQQTIFGRDKQTGAPLGMQHEHDVPDYASDPEGKVIALDSHIRLANPRTAESESSLMLRRGYSYSLGVTNSGQLDMGLLFVCYQHDLEKGFLTVQKRLNGEALEEYVKPIGGGYFFALPGVKDANDYFGSALLRV”, the “total protein half-life in vivo” value runs as follows: under setting [2], 5.58 h; under setting [5], 5.85 h; under setting [6], 2.17 ± 0.16 h; under setting [7], 4.4 h; under setting [8], 7.71 h.

Turning to “MPSLSKEAALVHEALVARGLETPLRPPVHEMDNETRKSLIAGHMTEIMQLLNLDLADDSLMETPHRIAKMYVDEIFSGLDYANFPKITLIENKMKVDEMVTVRDITLTSTCEHHFVTIDGKATVAYIPKDSVIGLSKINRIVQFFAQRPQVQERLTQQILIALQTLLGTNNVAVSIDAVHYCVKARGIRDATSATTTTSLGGLFKSSQNTRHEFLRAVRHHN [P0A6T5]”, the “total protein half-life in vivo” value under setting [1] worked out at 2.49 ± 0.12 h; the “total protein half-life in vivo” value under setting [2] was 1.56 ± 0.27 h; the “total protein half-life in vivo” value under setting [3] was 1.5 ± 0.11 h; the “total protein half-life in vivo” value under setting [4] turned out to be 1.82 ± 0.16 h; the “total protein half-life in vivo” value under setting [5] worked out at 1.65 ± 0.21 h; the “total protein half-life in vivo” value under setting [6] was determined as 2.81 ± 0.23 h. The “total protein half-life in vivo” value worked out at 3.46 ± 0.48 h under setting [7]; 5.29 ± 0.21 h under setting [8]; 1.89 ± 0.34 h under setting [9]; 2.02 ± 0.14 h under setting [10]; 4.46 ± 0.21 h under setting [11]; 8.1 ± 0.27 h under setting [12].

As for P77704, the “total protein half-life in vivo” value under setting [1] was 6.54 ± 0.9 h; the “total protein half-life in vivo” value under setting [3] worked out at 1.5 h; the “total protein half-life in vivo” value under setting [4] was found to be 2.26 h; the “total protein half-life in vivo” value under setting [5] is 1.31 h; the “total protein half-life in vivo” value under setting [9] amounted to 1.53 ± 0.3 h; the “total protein half-life in vivo” value under setting [10] was 2.2 h.

With “MIGRISRFMTRFVSRWLPDPLIFAMLLTLLTFVIALWLTPQTPISMVKMWGDGFWNLLAFGMQMALIIVTGHALASSAPVKSLLRTAASAAKTPVQGVMLVTFFGSVACVINWGFGLVVGAMFAREVARRVPGSDYPLLIACAYIGFLTWGGGFSGSMPLLAATPGNPVEHIAGLIPVGDTLFSGFNIFITVALIVVMPFITRMMMPKPSDVVSIDPKLLMEEADFQKQLPKDAPPSERLEESRILTLIIGALGIAYLAMYFSEHGFNITINTVNLMFMIAGLLLHKTPMAYMRAISAAARSTAGILVQFPFYAGIQLMMEHSGLGGLITEFFINVANKDTFPVMTFFSSALINFAVPSGGGHWVIQGPFVIPAAQALGADLGKSVMAIAYGEQWMNMAQPFWALPALAIAGLGVRDIMGYCITALLFSGVIFVIGLTLF”, the “total protein half-life in vivo” value under setting [2] is 5.89 h; the “total protein half-life in vivo” value under setting [4] is 5.21 h; the “total protein half-life in vivo” value under setting [5] was 5.88 h; the “total protein half-life in vivo” value under setting [9] stood at 5.5 h; the “total protein half-life in vivo” value under setting [10] came to 15.3 h.
